Broadly, the Ki is a measure of affinity in units of concentration, obtained from inhibition or displacement. Read a high Ki as lower affinity.

The text below walks through data of patent US20070027086A1.

In assay [1] the target is human MC4-receptor (human) (UniProt P32245). As to the kind of experiment: competition with [^125I]NDP-MSH on COS cells expressing human MC4 receptor; Ki by Cheng-Prusoff.
The target of assay [2] is human MC5-receptor (human) (UniProt P33032). Briefly: competition with [^125I]NDP-MSH on COS cells expressing human MC5 receptor; Ki by Cheng-Prusoff.
human MC5-receptor (human), sequence (P33032 whole entry): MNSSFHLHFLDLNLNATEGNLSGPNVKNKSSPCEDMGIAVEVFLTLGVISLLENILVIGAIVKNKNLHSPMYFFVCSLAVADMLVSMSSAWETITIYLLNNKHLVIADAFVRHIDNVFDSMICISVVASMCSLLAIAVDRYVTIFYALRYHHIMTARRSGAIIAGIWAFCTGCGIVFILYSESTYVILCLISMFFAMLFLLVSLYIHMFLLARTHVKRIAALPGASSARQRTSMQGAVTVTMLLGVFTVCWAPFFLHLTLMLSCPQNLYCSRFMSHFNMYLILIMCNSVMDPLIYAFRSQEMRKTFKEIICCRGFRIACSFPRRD
The target in assay [3] is human MC4-receptor (human) (UniProt P32245). Briefly: ratio of Ki values, competition with [^125I]NDP-MSH on COS-1 cells expressing human MC receptors.
The target of assay [4] is human MC5-receptor (human) (UniProt P33032). The assay is described as above.

human MC4-receptor (human), sequence (P32245 whole entry): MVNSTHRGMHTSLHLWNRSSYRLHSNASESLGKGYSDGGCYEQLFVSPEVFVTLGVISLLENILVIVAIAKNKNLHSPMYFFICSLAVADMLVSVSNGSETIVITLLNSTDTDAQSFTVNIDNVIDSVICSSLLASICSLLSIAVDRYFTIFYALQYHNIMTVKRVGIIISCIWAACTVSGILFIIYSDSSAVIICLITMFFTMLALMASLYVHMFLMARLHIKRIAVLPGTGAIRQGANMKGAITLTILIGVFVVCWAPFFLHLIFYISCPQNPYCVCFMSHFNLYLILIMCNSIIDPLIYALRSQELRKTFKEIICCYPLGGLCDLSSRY

Take “MS05 (Ser-Ser-Ile-Ile-Ser-His-Phe-Arg-Trp-Gly-Lys-Pro-Val-NH2) (peptide)”: the Ki in assay [1] and in assay [2] was above 50 µM throughout. For the same substance, the fold lower affinity than for the MC1-receptor in assay [3] and in assay [4] was above 65000 fold in each case.
